Source: publication PMC8188212, “Multi‐Arm PEG/Peptidomimetic Conjugate Inhibitors of DR6/APP Interaction Block Hematogenous Tumor Cell Extravasation” (Advanced Science, 2021)
“Also recorded” adds a separate entry of the source. Square brackets hold non-standard residues; d marks the D form. Side chains are listed from the residue outwards. Ends that are not written are not given here. maleimide = maleimide: 4-arm PEG5k maleimide reacting with the C-terminal Cys thiol

Columns and labels:
HUVECs = test: Co-culture of TCs and HUVECs, TC-induced HUVECs necroptosis; format: cell-based, human; settings: co-culture with GFP-B16F10, GFP-SGC-996, GFP-LLC1 for 24 h; peptides 1 × 10^–6 M; Hoechst 33342/EthD-III staining; n = 3
Experimental: For co‐culture experiment, HUVECs (1 × 10^5) were cultured for 24 h in six‐well plates and 5 × 10^4 GFP‐expressing TCs (GFP‐B16F10, GFP‐SGC‐996, and GFP‐LLC1) were added alone or in the presence of the indicated substances onto the HUVECs monolayer and cultured for 24 h: peptides (1 × 10^–6 M), Nec‐1 (30 × 10^–6 M), and zVAD (100 × 10^–6 M). Then, cells were stained with Hoechst 33342 and EthD‐III, and observed by fluorescence microscope. Cell number was determined by counting Hoechst‐33342‐positive cells, and cell death was determined by counting EthD‐III‐positive nuclei.^[ ^9 ^]

[1] = DLS analysis of size in solution; format: physicochemical
Experimental: AHP‐DRI‐12 with additional Cys residue at the C‐terminal and 4‐arm PEG5k maleimide was dissolved in PBS (0.1 M, pH = 8) at a molar ratio of 8:1. The reaction mixture was stirred for 4 h at room temperature and then dialyzed in a Slide‐A‐Lyzer dialysis cassette (Thermo Fisher Scientific, Shanghai, China) (MWCO: 3500 Da) against water. The dialysate containing the pure product was lyophilized. The products were confirmed by nuclear magnetic resonance (^1H NMR) spectra using a Bruker Avance 500 (500 MHz) spectrometer (Beijing, China).

[2] = Biodistribution, ex vivo fluorescence imaging of organs; format: in vivo; settings: Cy7-labeled peptides, intravenous, mice
Experimental: To quantify the biodistribution, mice were intravenously injected with Cy7‐labeled peptides. Mice were sacrificed at 6, 12, and 24 h after injection. All organs were harvested and subjected to ex vivo fluorescence imaging.

[3] = Peptides stability in 25% rat serum; format: in vitro ADME; settings: FITC-labeled peptides, 25% fresh rat serum, 37 °C, 0, 4, 8, 24, 48, 96 h; acetonitrile/0.1% TFA precipitation; microplate reader; n = 3
Experimental: FITC‐labeled peptides were added into 25% rat serum and incubated at 37 °C. After incubation at 0, 4, 8, 24, 48, 96 h, 100 µL solution was collected and acetonitrile (containing 0.1% TFA) was added to precipitate the protein in the serum. The serum samples were incubated at 4 °C for 20 min and then centrifuged at 12 000 rpm for 10 min. A total of 20 µL supernatant was measured by a microplate reader.

[4] = test system: RIPK1, RIPK3, MLKL and their phosphorylated states in HUVECs; test: Western blot of necroptosis pathway proteins; format: cell-based, human; settings: 24 h, 0.1, 1.0, 10 × 10^–6 M AHP-DRI-12
Experimental: Western blot assay was conducted to examine the expression level of RIPK1, RIPK3, MLKL, and their phosphorylated states that were downstream protein of DR6. Briefly, 5 × 10^5 HUVECs were added in six‐well plates and grown overnight. Next day, HUVECs were treated with TSZ, AHP‐DRI‐12, and PEG‐tAHP‐DRI (0.1 × 10^–6, 1.0 × 10^–6, 10 × 10^–6 M AHP‐DRI‐12), respectively. After incubating for 24 h, HUVECs were washed with PBS, harvested, and mixed with 150 µL cell lysate buffer/well (Beyotime, China). Protein samples were collected after incubation at 4 ℃ for 30 min. Protein samples were centrifuged at 4 °C and 12 000 rpm for 10 min, and the supernatant was collected as samples. Each sample was then separated by 12% SDS–PAGE, followed by transferring to polyvinylidene difluoride membranes. Finally, samples were incubated with antibodies. HRP‐labeled secondary antibodies were added and measured using an imaging system.

[5] = In vivo safety analysis in healthy mice; set-up: species or system C57BL/6 mice; settings: intravenous
Experimental: For evaluating the toxicity of peptides in vivo, 6 week old healthy mice were intravenously injected with AHP‐DRI‐12 and PEG‐tAHP‐DRI (0.2 µg g^–1 AHP‐DRI‐12). After 2 and 15 days, mice were sacrificed and serum samples were collected for the biochemical analysis (ALT, AST, BRU, and URE). Tissue samples from various organs were collected for tissue sections. The tissue sections were analyzed by H&E staining and immunohistochemistry analysis.

hERG potassium channel = hERG potassium channel (Homo sapiens, UniProt Q12809); test: Whole-cell patch clamp recording of hERG current; format: cell-based; settings: cisapride as positive control
Experimental: In addition, some common adverse effects suffered by frequently used medications were also evaluated. The whole‐cell patch clamp recording technique was used to record the whole‐cell hERG‐potassium to measure the cardiac toxicity of peptidomimetic agents on hERG potassium channel by utilizing cisapride as positive control (Figure 6E; Figure S10, Supporting Information). […] Meanwhile, the blood biochemical indexes of ligand‐treated mice sacrificed on day 2 or day 15 were tested to examine the influences of peptidomimetic agents to liver and kidney (Figure S11, Supporting Information).

[6] = healthy C57BL/6 mice, day 2 or 15

Chain of hERG potassium channel (Q12809 whole entry): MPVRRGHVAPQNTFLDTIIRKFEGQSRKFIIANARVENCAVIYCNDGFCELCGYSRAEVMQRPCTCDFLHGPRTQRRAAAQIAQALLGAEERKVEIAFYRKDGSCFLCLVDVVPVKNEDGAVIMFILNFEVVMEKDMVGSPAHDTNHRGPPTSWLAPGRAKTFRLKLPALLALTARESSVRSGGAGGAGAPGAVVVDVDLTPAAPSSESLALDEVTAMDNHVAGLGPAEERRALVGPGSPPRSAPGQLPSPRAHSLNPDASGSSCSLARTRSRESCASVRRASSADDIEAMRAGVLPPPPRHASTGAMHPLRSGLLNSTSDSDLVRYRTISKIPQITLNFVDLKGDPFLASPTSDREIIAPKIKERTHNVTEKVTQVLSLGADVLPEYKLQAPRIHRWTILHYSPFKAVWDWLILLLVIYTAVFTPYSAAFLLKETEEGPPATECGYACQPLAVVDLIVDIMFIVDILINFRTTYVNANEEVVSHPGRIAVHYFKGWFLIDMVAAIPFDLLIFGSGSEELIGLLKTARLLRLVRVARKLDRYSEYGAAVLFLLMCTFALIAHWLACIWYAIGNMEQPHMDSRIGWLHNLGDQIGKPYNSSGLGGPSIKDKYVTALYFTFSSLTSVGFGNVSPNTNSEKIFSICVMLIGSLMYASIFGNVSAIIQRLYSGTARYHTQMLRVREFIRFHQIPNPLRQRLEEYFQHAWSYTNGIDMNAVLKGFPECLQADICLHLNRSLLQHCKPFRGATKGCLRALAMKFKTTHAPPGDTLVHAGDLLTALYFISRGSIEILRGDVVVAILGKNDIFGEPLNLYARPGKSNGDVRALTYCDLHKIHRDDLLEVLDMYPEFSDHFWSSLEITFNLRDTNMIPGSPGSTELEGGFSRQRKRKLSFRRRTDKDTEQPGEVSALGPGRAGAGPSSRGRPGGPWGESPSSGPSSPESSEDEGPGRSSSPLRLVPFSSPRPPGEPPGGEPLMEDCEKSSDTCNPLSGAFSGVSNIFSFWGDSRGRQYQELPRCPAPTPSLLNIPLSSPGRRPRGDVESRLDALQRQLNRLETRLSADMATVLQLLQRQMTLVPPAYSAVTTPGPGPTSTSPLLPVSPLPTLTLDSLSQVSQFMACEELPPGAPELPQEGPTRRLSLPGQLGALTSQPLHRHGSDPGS

Substance: PEG-tAHP-DRI: tetra-(D-retro-inverso isomer of AHP-12) substitued 4-arm PEG5k ([dP][dT][dT][dA][dD][dI][dT]C([maleimide-4‑arm PEG5k]); also: four peptides on one 4-arm PEG5k)
- inhibition of TCs-induced HUVECs necroptosis (HUVECs): strongest potent inhibitory effect on HUVECs necroptosis; also recorded: much less amount of necroptotic HUVECs
- size distribution in solution (hydration dynamic radius, DLS) [1]: ≈ 10 nm
- distribution in kidney and liver after 12 h [2]: much higher distribution in kidney and liver
- distribution intensity within 6 h, compared with AHP-DRI-12 [2]: much lower distribution intensity
- organ accumulation within 6 h after injection [2]: accumulate mostly in kidney and slightly in liver
- degradation in 25% rat serum (proteolytic stability) [3]: obviously enhanced proteolytic resistance
- native activation of necroptosis pathway (expression levels of p-RIPK1, p-RIPK3, p-MLKL) [4]: could not initialize necroptosis pathway
- apoptotic cells in tissues, TUNEL staining [5, 6]: no obvious increase in apoptotic cells
- damage to vessels, CD31 staining [5, 6]: could not cause damage to the vessels
- downstream signaling pathway of DR6 (p-RIPK1, p-IκB-α, caspase 8 staining) [5, 6]: could not be impacted
- damage to liver or kidney, blood biochemical indexes (ALT, AST, BRU, URE) ([5]; healthy mice, 0.2 µg g^–1 AHP-DRI-12, sacrificed day 2 or day 15): could not cause any damage to liver or kidney
- inhibitory effect on hERG channels (hERG potassium channel): no significant inhibitory effect
